# Test results: US12037382 (STICHTING VU, dated 2024)
# B1: human chemokine CX3CL1 (ligand, UniProt P78423 25-100, looked up)
# chain: QHHGVTKCNITCSKMTSKIPVALLIHYQQNQASCGKRAIILETRQHRLFCADPKEQWVKDAMQHLDRQAAALTRNG
# modifications: 125I label where used as radioligand
# notes: also called CX3CL1/Fractalkine
# Tests used:
# [1] = biological target: T1, US28 wild type, G protein-coupled receptor of human cytomegalovirus strain VHL/E (human cytomegalovirus strain VHL/E); assay: competition of unlabeled CX3CL1 against 125I-CX3CL1 on US28
# T1 construct: whole, on cells; In some assays membranes of transfected cells were used; also called US28-WT; US28 VHL/E
# [2] = biological target: T1, US28 wild type, G protein-coupled …; assay: displacement of 125I-CX3CL1 from US28-expressing HEK293T membranes by unlabeled CX3CL1
binder,measurement,setting,value
B1,IC50 (read off the curve),[1],~0.1 nM
same,IC50 (read off the curve),[2],~0.3 nM
